Reference: patent US20040133357A1 (ABMAXIS, published 2004)
Changes are numbered by the printed parent chain.

B1: hAB3 (scFv)
scFv: EVQLVQSGGGVVQPGGSLRLSCAASGYTFTNYGMNWIRQAPGKGLEWVGWINTYTGEPTYAADFKRRVTFSLDTSKSTAYLQLNSLRAEDTAVYYCAKYPHYYGSSHWYFDVWGQGTLVTVSSGGGGSGGGGSGGGGSDIQMTQSPSSLSASVGDRVTITCSASQDISNYLNWYQQKPGKAPKVLIYFTSSLHSGVPSRFSGSGSGTDFTLTISSLQPEDFATYYCQQYSTVPWTFGQGTKVEIK
notes: Single chain format; not shown: HA-His6 tag at C-terminus
B2: hAB4 (scFv)
scFv: B1 scFv with E1Q, S21T, I37V, V68F, F70I, T78Q, L83M
notes: as for B1

How the values were obtained:
[1] = target: T1, purified recombinant human VEGF165 (human, UniProt P15692 27-191, glycosylated); test: SPR (BIAcore), scFv over VEGF immobilized on CM5 chip; reference hAB1
T1 construct: mature; Bought from Calbiochem; also called VEGF protein (Calbiochem); homodimeric VEGF protein
T1 sequence (P15692 other isoform, or with tags, fused parts or gaps limits assumed): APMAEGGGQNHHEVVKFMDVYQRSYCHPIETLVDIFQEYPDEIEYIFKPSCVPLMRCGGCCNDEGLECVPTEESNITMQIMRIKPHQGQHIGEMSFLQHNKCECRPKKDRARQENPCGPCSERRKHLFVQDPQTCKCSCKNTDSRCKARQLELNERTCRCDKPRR
Experimental: (§1) Antibody fragments in the format of single chain were expressed as described below and purified. The measurement was done by measuring the change of SPR units (y-axis) vs time (x-axis) when a purified antibody binds its antigen (VEGF) immobilized on the CM5 biochip at 25° C. Kd values were calculated by the […].
(§2) BIAcore Biosensor Assay was used to determine antibody affinity. VEGF protein (purchased from Calbiochem) was coupled to a CM-5 biosensor ship by amine coupling. After immobilization, CM-5 chips with 200 to 1000 response unites of VEGF were kept at 4° C. before use. All experiments were performed at 25° C. or 35° C. Each sample in PBS buffer was injected over VEGF surface at a flow rate of 20 ul/min using Biacore 1000 (Biacore AB, Sweden), and bound antibodies were removed from chip by 10 ul of glycine-HCl, PH 1.5 at the end of each cycle. Each sensorgram was recorded and normalized to a PBS base line.

[2] = target: T1, purified recombinant human VEGF165; test: SPR (BIAcore), scFv over VEGF immobilized on CM5 chip, 25 C; reference hAB1
Experimental: as §2

[3] = target: T1, purified recombinant human VEGF165; test: SPR (BIAcore), purified scFv over VEGF immobilized on CM5 chip, 25 C
Experimental: as §1, §2

Binder	fold higher binding affinity than hAB1 [1]	fold higher binding affinity than the parental/reference antibody (hAB1) [2]	Kd [3]	hAB1 Kd/Variant Kd [3]	koff [3]	kon [3]
B1	4 fold	~4 fold	0.0031 µM	4.2	0.000115 s⁻¹	37400 M⁻¹ s⁻¹
B2	2 fold		0.026 µM	0.5	0.000104 s⁻¹	4000 M⁻¹ s⁻¹
